Test results published in paper PMC5584141 (The Journal of Cell Biology, 2017).

T1: GPC6-AP fusion protein (UniProt Q9R087 24-530, carries glycosaminoglycan (GAG) chains; biotinylated with EZ-link Sulfo-NHS-LC biotin for SPR)
T1 sequence: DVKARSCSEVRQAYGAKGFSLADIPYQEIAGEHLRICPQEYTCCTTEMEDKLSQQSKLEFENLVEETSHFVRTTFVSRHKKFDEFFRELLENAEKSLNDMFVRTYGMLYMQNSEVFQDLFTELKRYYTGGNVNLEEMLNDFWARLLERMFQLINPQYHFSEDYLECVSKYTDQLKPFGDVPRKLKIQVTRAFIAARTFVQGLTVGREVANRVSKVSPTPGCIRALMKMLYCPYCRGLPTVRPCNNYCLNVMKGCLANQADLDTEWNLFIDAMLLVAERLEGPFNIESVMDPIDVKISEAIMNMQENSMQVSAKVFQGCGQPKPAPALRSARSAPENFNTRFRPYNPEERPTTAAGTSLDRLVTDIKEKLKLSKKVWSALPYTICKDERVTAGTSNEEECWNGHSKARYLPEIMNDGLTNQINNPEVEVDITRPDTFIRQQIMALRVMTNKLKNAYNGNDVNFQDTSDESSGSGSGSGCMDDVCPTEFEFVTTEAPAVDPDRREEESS

B1: recombinant Ihh (ligand)
chain: not shown

Assays:
Assay in all cases: SPR
[1] = molecular target: recombinant Shh (UniProt Q62226 25-198)
Sequence of recombinant Shh (Q62226 25-198): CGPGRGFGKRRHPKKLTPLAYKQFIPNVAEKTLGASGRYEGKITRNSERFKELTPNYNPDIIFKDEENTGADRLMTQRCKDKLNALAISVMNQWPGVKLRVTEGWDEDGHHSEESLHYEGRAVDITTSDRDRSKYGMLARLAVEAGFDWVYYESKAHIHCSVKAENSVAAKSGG

[2] = molecular target: B1
[3] = molecular target: T1, GPC6-AP fusion protein

Binder	Kd [1] [nM]	Kd [2] [nM]	Kd [3] [nM]
GPC6ΔGAG-AP fusion protein (natural protein, biotinylated with EZ-link Sulfo-NHS-LC biotin for SPR) DVKARSCSEVRQAYGAKGFSLADIPYQEIAGEHLRICPQEYTCCTTEMEDKLSQQSKLEFENLVEETSHFVRTTFVSRHKKFDEFFRELLENAEKSLNDMFVRTYGMLYMQNSEVFQDLFTELKRYYTGGNVNLEEMLNDFWARLLERMFQLINPQYHFSEDYLECVSKYTDQLKPFGDVPRKLKIQVTRAFIAARTFVQGLTVGREVANRVSKVSPTPGCIRALMKMLYCPYCRGLPTVRPCNNYCLNVMKGCLANQADLDTEWNLFIDAMLLVAERLEGPFNIESVMDPIDVKISEAIMNMQENSMQVSAKVFQGCGQPKPAPALRSARSAPENFNTRFRPYNPEERPTTAAGTSLDRLVTDIKEKLKLSKKVWSALPYTICKDERVTAGTSNEEECWNGHSKARYLPEIMNDGLTNQINNPEVEVDITRPDTFIRQQIMALRVMTNKLKNAYNGNDVNFQDTSDESAGAGAGAGCMDDVCPTEFEFVTTEAPAVDPDRREEESS	21	16	–
B1	–	–	14
